Reference: patent US20100227824A1 (SYMTHERA CANADA, published 2010)

T1: I-309 (CCL1) (UniProt P22362 23-96, limits assumed)
T1 construct: Bought chemokine
T1 sequence (looked up): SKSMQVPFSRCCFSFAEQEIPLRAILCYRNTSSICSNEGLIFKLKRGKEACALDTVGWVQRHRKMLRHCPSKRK

T2: I-TAC (CXCL11) (UniProt O14625 22-94)
T2 construct: Bought chemokine; also called I-TACK
T2 sequence (looked up): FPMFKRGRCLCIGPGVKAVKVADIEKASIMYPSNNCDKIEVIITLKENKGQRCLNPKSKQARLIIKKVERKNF

T3: GRO-β (CXCL2) (UniProt P19875 35-107)
T3 construct: Bought chemokine
T3 sequence (looked up): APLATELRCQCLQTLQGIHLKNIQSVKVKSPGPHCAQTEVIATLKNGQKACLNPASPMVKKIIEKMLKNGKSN

T4: MCP-2 (CCL8) (UniProt P80075 24-99)
T4 construct: Bought chemokine
T4 sequence (looked up): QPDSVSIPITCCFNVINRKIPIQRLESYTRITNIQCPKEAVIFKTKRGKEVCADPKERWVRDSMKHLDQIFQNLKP

T5: Exodus-2 (CCL21) (UniProt O00585 24-134)
T5 construct: Bought chemokine
T5 sequence (looked up): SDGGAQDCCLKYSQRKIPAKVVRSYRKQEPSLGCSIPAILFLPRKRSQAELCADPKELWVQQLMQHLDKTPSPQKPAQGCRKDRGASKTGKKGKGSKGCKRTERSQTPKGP

T6: RANTES (CCL5) (UniProt P13501 24-91)
T6 construct: Bought chemokine
T6 sequence (looked up): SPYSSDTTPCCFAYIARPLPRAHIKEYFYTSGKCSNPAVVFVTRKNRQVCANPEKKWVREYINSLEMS

T7: Mig (CXCL9) (UniProt Q07325 23-125)
T7 construct: Bought chemokine
T7 sequence (looked up): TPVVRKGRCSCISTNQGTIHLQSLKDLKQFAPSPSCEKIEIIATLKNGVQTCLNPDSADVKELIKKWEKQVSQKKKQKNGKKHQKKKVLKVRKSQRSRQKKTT

T8: Lymphotactin (XCL-1) (UniProt P47992 23-114, limits assumed)
T8 construct: Bought chemokine
T8 sequence (looked up): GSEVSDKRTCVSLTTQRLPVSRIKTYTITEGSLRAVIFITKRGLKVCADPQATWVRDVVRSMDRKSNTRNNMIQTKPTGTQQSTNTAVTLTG

T9: IP-10 (CXCL10) (UniProt P02778 22-98)
T9 construct: Bought chemokine
T9 sequence (looked up): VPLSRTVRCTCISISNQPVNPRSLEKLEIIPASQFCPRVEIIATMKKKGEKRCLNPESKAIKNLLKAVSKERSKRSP

T10: BCA-1 (CXCL13) (UniProt O43927 23-109)
T10 construct: Bought chemokine
T10 sequence (looked up): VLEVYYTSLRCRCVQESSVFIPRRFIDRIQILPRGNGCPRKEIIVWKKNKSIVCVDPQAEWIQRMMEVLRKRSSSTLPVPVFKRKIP

T11: TECK (CCL25) (UniProt O15444 24-150)
T11 construct: Bought chemokine
T11 sequence (looked up): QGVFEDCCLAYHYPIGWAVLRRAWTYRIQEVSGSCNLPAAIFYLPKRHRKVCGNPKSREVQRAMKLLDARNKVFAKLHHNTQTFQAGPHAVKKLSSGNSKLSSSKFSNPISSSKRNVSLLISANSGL

T12: Eotaxin 3 (CCL26) (UniProt Q9Y258 24-94)
T12 construct: Bought chemokine
T12 sequence (looked up): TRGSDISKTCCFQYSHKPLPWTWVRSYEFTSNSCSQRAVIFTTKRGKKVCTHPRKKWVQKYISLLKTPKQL

T13: Eotaxin 2 (CCL24) (UniProt O00175 27-104, limits assumed)
T13 construct: Bought chemokine
T13 sequence (looked up): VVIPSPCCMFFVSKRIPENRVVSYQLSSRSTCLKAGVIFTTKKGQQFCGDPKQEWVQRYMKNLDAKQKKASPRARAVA


The binders below were run against T14, SDF-1β (CXCL12) (UniProt P48061 22-93) (assay: micro-array, phage-presented peptide on printed CK).
T14 construct: Beta isoform of CXCL12; also called SDFβ
T14 sequence (P48061 22-93 limits assumed): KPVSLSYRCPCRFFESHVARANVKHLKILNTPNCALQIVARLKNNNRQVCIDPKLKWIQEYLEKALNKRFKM
Method: (§1) (1) Printing: Chemokine (CK) solution (in water) was serially diluted with Print Reagent (GenTel BioSurfaces USA) to final concentrations of 50 μg and 25 μg/ml. BSA/BSA-Biotin control solutions (in water) were diluted with Print Reagent to 100 μg/ml. Amplified stock of M13 phage control (M13KEgIII Cloning Vector, New England Biolabs, Cat.No.E8101S) was stored in Tris Buffered Saline (TBS; pH7.5, 4° C.) and diluted with Print Reagent to the working titre (10^8 pfu/μl). An automated spotting robot (16 pin print tool, 0.4mm head; BioRobotics, UK) was used to print the CK/BSA control/M13 control, 5 repeats per sample (CK 25 μg/ml and 50 μg/ml; BSA 100 μg/ml; M13 20 μl), on PATH Protein Microarray Slides (GenTel, Prod.No.2-1005/-1025) at […], and 50-70% relative humidity. Printed micro-array slides were stored at Room Temperature (RT) or 4° C. for at least 24 h before use.
(§2) (2) Blocking: Block Buffer (500 μl/partition; PATHblock, GenTel, Prod.No.2-1014) was applied to the slide for 1 hour at room temp (RT). After removal of Block Buffer, the slide was air dried for 25 minutes;
(§3) (11) Analysis: Quantitative analysis of micro-array was performed by the SpotReader program of Niles Scientific (USA) and presented as Relative Fluorescence (RF) as a function of CK concentration. Micro-array readout (Cy3 fluorescence) was quantified to determine the relative binding affinities of a CBP for the CKs and by inference, the specificity of the CBP for binding to a CK.
WVFGNAACK [Phage-Presented Peptide 8.7 (Ph-p8.7)]: binds. WVFGAAACK [Phage-Presented Peptide 8.6 (Ph-p8.6)]: binds.

These binders were tested against T15, Eotaxin (CCL11) (UniProt P51671 24-97) (assay: micro-array, phage-presented peptide on printed CK).
T15 construct: Bought chemokine
T15 sequence (P51671 24-97 limits assumed): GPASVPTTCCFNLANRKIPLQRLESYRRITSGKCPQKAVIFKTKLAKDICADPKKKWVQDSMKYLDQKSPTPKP
Method: as §1, §2, §3
DRYLNIVHAT [Phage-Presented Peptide 18 (Ph-p18)]: binds. WVFGNAACK [Phage-Presented Peptide 8.7 (Ph-p8.7)]: binds. TTFFDYDYG [Phage-Presented Peptide 11 (Ph-p11)]: binds. WVFGSGLCK [Phage-Presented Peptide 15 (Ph-p15)]: binds. WVFGAAACK [Phage-Presented Peptide 8.6 (Ph-p8.6)]: binds.

What follows are binders tested against T16, SDF-1α (CXCL12) (UniProt P48061-2 22-89) (assay: micro-array, phage-presented peptide on printed CK).
T16 construct: Alpha isoform of CXCL12; also called SDFα
T16 sequence (P48061 22-89 limits assumed): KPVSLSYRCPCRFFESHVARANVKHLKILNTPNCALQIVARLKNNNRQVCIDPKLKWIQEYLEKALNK
Method: as §1, §2, §3
WVFGAAACK [Phage-Presented Peptide 8.6 (Ph-p8.6)]: binds.

Each binder was assayed against T1, I-309 (CCL1) (assay: micro-array, phage-presented peptide on printed CK).
Method: as §1, §2, §3
WVFGNAACK [Phage-Presented Peptide 8.7 (Ph-p8.7)]: binds. WVFGAAACK [Phage-Presented Peptide 8.6 (Ph-p8.6)]: binds.

The binders below were run against T2, I-TAC (CXCL11) (assay: micro-array, phage-presented peptide on printed CK).
Method: as §1, §2, §3
For DRYLNIVHAT [Phage-Presented Peptide 18 (Ph-p18)], the “Relative Fluorescence Units (RFU)” value was > 9000 RFU. WVFGNAACK [Phage-Presented Peptide 8.7 (Ph-p8.7)]: binds. WVFGSGLCK [Phage-Presented Peptide 15 (Ph-p15)] was tested, and the “Relative Fluorescence Units (RFU)” value was > 15000 RFU. WVFGAAACK [Phage-Presented Peptide 8.6 (Ph-p8.6)]: binds.

These binders were tested against T3, GRO-β (CXCL2) (assay: micro-array, phage-presented peptide on printed CK).
Method: as §1, §2, §3
DRYLNIVHAT [Phage-Presented Peptide 18 (Ph-p18)]: binds. TTFFDYDYG [Phage-Presented Peptide 11 (Ph-p11)]: binds. WVFGSGLCK [Phage-Presented Peptide 15 (Ph-p15)]: binds.

These binders were tested against T17, MCP-4 (CCL13) (UniProt Q99616 24-98) (assay: micro-array, phage-presented peptide on printed CK).
T17 construct: Bought chemokine
T17 sequence (Q99616 24-98 limits assumed): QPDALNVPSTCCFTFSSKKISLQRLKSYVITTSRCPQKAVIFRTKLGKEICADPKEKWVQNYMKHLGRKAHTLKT
Method: as §1, §2, §3
DRYLNIVHAT [Phage-Presented Peptide 18 (Ph-p18)]: binds. In the case of WVFGNAACK [Phage-Presented Peptide 8.7 (Ph-p8.7)], the “Relative Fluorescence Units (RFU)” value is reported as > 15000 RFU. TTFFDYDYG [Phage-Presented Peptide 11 (Ph-p11)] was tested, and the “Relative Fluorescence Units (RFU)” value was > 600 RFU. WVFGSGLCK [Phage-Presented Peptide 15 (Ph-p15)]: binds. WVFGAAACK [Phage-Presented Peptide 8.6 (Ph-p8.6)] was tested, and the “Relative Fluorescence Units (RFU)” value was > 15000 RFU.

The binders below were run against T4, MCP-2 (CCL8) (assay: micro-array, phage-presented peptide on printed CK).
Method: as §1, §2, §3
DRYLNIVHAT [Phage-Presented Peptide 18 (Ph-p18)]: binds. With WVFGNAACK [Phage-Presented Peptide 8.7 (Ph-p8.7)] the “Relative Fluorescence Units (RFU)” value was > 15000 RFU. With TTFFDYDYG [Phage-Presented Peptide 11 (Ph-p11)] the “Relative Fluorescence Units (RFU)” value was > 600 RFU. WVFGSGLCK [Phage-Presented Peptide 15 (Ph-p15)]: binds. For WVFGAAACK [Phage-Presented Peptide 8.6 (Ph-p8.6)], the “Relative Fluorescence Units (RFU)” value was > 15000 RFU.

These binders were tested against T18, MCP-1 (CCL2) (UniProt P13500 24-99) (assay: micro-array, phage-presented peptide on printed CK).
T18 construct: Bought chemokine
T18 sequence (P13500 24-99 limits assumed): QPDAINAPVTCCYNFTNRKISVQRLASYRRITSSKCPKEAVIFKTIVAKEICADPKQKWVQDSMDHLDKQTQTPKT
Method: as §1, §2, §3
DRYLNIVHAT [Phage-Presented Peptide 18 (Ph-p18)]: binds. TTFFDYDYG [Phage-Presented Peptide 11 (Ph-p11)] was tested, and the “Relative Fluorescence Units (RFU)” value was > 600 RFU. WVFGSGLCK [Phage-Presented Peptide 15 (Ph-p15)]: binds. For WVFGAAACK [Phage-Presented Peptide 8.6 (Ph-p8.6)], the “Relative Fluorescence Units (RFU)” value was > 15000 RFU.

The binders below were run against T5, Exodus-2 (CCL21) (assay: micro-array, phage-presented peptide on printed CK).
Method: as §1, §2, §3
WVFGSGLCK [Phage-Presented Peptide 15 (Ph-p15)]: binds. WVFGAAACK [Phage-Presented Peptide 8.6 (Ph-p8.6)]: binds.

What follows are binders tested against T6, RANTES (CCL5) (assay: micro-array, phage-presented peptide on printed CK).
Method: as §1, §2, §3
DRYLNIVHAT [Phage-Presented Peptide 18 (Ph-p18)]: binds. TTFFDYDYG [Phage-Presented Peptide 11 (Ph-p11)]: binds. WVFGSGLCK [Phage-Presented Peptide 15 (Ph-p15)]: binds.

What follows are binders tested against T7, Mig (CXCL9) (assay: micro-array, phage-presented peptide on printed CK).
Method: as §1, §2, §3
In the case of DRYLNIVHAT [Phage-Presented Peptide 18 (Ph-p18)], the “Relative Fluorescence Units (RFU)” value is reported as > 9000 RFU. WVFGNAACK [Phage-Presented Peptide 8.7 (Ph-p8.7)]: binds. TTFFDYDYG [Phage-Presented Peptide 11 (Ph-p11)]: binds. In the case of WVFGSGLCK [Phage-Presented Peptide 15 (Ph-p15)], the “Relative Fluorescence Units (RFU)” value is reported as > 15000 RFU. WVFGAAACK [Phage-Presented Peptide 8.6 (Ph-p8.6)]: binds.

The binders below were run against T8, Lymphotactin (XCL-1) (assay: micro-array, phage-presented peptide on printed CK).
Method: as §1, §2, §3
DRYLNIVHAT [Phage-Presented Peptide 18 (Ph-p18)]: binds. WVFGNAACK [Phage-Presented Peptide 8.7 (Ph-p8.7)]: binds. TTFFDYDYG [Phage-Presented Peptide 11 (Ph-p11)]: binds. WVFGSGLCK [Phage-Presented Peptide 15 (Ph-p15)]: binds. WVFGAAACK [Phage-Presented Peptide 8.6 (Ph-p8.6)]: binds.

Each binder was assayed against T9, IP-10 (CXCL10) (assay: micro-array, phage-presented peptide on printed CK).
Method: as §1, §2, §3
WVFGNAACK [Phage-Presented Peptide 8.7 (Ph-p8.7)]: binds. In the case of WVFGSGLCK [Phage-Presented Peptide 15 (Ph-p15)], the “Relative Fluorescence Units (RFU)” value is reported as > 15000 RFU. WVFGAAACK [Phage-Presented Peptide 8.6 (Ph-p8.6)]: binds.

The binders below were run against T10, BCA-1 (CXCL13) (assay: micro-array, phage-presented peptide on printed CK).
Method: as §1, §2, §3
DRYLNIVHAT [Phage-Presented Peptide 18 (Ph-p18)]: binds. WVFGNAACK [Phage-Presented Peptide 8.7 (Ph-p8.7)]: binds. WVFGSGLCK [Phage-Presented Peptide 15 (Ph-p15)]: binds. WVFGAAACK [Phage-Presented Peptide 8.6 (Ph-p8.6)]: binds.

What follows are binders tested against T11, TECK (CCL25) (assay: micro-array, phage-presented peptide on printed CK).
Method: as §1, §2, §3
DRYLNIVHAT [Phage-Presented Peptide 18 (Ph-p18)]: binds. WVFGNAACK [Phage-Presented Peptide 8.7 (Ph-p8.7)]: binds. TTFFDYDYG [Phage-Presented Peptide 11 (Ph-p11)]: binds. WVFGSGLCK [Phage-Presented Peptide 15 (Ph-p15)]: binds. WVFGAAACK [Phage-Presented Peptide 8.6 (Ph-p8.6)]: binds.

Each binder was assayed against T12, Eotaxin 3 (CCL26) (assay: micro-array, phage-presented peptide on printed CK).
Method: as §1, §2, §3
DRYLNIVHAT [Phage-Presented Peptide 18 (Ph-p18)]: binds. WVFGNAACK [Phage-Presented Peptide 8.7 (Ph-p8.7)]: binds. TTFFDYDYG [Phage-Presented Peptide 11 (Ph-p11)]: binds. WVFGSGLCK [Phage-Presented Peptide 15 (Ph-p15)]: binds. WVFGAAACK [Phage-Presented Peptide 8.6 (Ph-p8.6)]: binds.

Each binder was assayed against T13, Eotaxin 2 (CCL24) (assay: micro-array, phage-presented peptide on printed CK).
Method: as §1, §2, §3
DRYLNIVHAT [Phage-Presented Peptide 18 (Ph-p18)]: binds. WVFGSGLCK [Phage-Presented Peptide 15 (Ph-p15)]: binds. WVFGAAACK [Phage-Presented Peptide 8.6 (Ph-p8.6)]: binds.
